Values of other authors, collected in PMC2805756.

Biological target: His107 (UniProt position 107, SSGMIHLLVQV)
Assay: kinetics
Conditions: free wild-type enzyme (thiolate-imidazolium ion pair)

Arylamine N-acetyltransferase 2 (hamster NAT2), wild type (Mesocricetus auratus (the article says only 'hamster'))
pKa: >9.5
